In paper PMC12421856 (mBio, 2025):

B1: pT1679 Fab (Fab, V domains shown)
VH: QVQLVQSGAEVKKPGSSVKVSCRASGGTFSSYAISWVRQAPGQGLEWMGTIIPVFGAPDYAQKFQGRVTITADESTSTAYMEVRSLRSEDTAVYYCARDASPYYYDRSGYPRWAEDLHHWGQGTMVTVSS
VL: QSVLTQPPSVSGAPGQRVTISCTGSSSNIGAGYDVHWYQQLPGTAPKLLIYGNSNRPSGVPDRFSGSKSGTSGSLAISGLQPEDEADYYCQSYDSSLSGSIFGGGTKLTVL
notes: also called Fab fragment of pT1679; source: Drosophila S2 cells, purified (Strep-Tactin XT, SEC)
B2: pT1679 Fab (Fab, V domains shown)
VH: B1 VH
VL: B1 VL
notes: source: Drosophila S2 cells, purified (Strep-Tactin XT, SEC)

Assays:
Conditions in all cases: both partners purified
[1] = target: trimeric SARS-CoV-2 S ectodomain (insect cell-expressed) (SARS-CoV-2 Wuhan-Hu-1 (MN908947), UniProt P0DTC2, stabilised); assay: SPR
SARS-CoV-2 S HexaPro = SARS-CoV-2 S HexaPro (SARS-CoV-2 Wuhan-Hu-1, HexaPro, stabilised); assay: cryo-EM structure
[2] = target: trimeric SARS-CoV-2 S ectodomain (insect cell-expressed) (SARS-CoV-2 Wuhan-Hu-1 (MN908947), UniProt P0DTC2, stabilised); assay: SPR; remark: listed apart in the source

Binder	fold higher affinity than for the RBD [1] [fold]	stoichiometry N (SARS-CoV-2 S HexaPro)	Kd [2] [nM]	koff [2] [s⁻¹]	kon [2] [M⁻¹ s⁻¹]
B1	~3				
B2		3 pT1679 molecules per trimeric S protein	0.13	0.00012	900000
